Source: the supplement of paper PMC11246515
± gives the standard deviation of the averaged measurements.

Experiment: total protein half-life in vivo (active degradation + dilution); higher = more stable protein
[1] = E. coli NCM3722 delta-clpP delta-lon delta-hslV, growth: N-lim chemostat, doubling time 6 h
[2] = E. coli NCM3722 delta-clpP, growth: N-lim chemostat, doubling time 6 h
[3] = E. coli NCM3722 delta-hslV, growth: N-lim chemostat, doubling time 6 h
[4] = E. coli NCM3722 delta-lon, growth: N-lim chemostat, doubling time 6 h
[5] = E. coli NCM3722 delta-smpB, growth: N-lim chemostat, doubling time 6 h
[6] = wild type E. coli NCM3722, growth: C-lim chemostat, doubling time 3 h
[7] = wild type E. coli NCM3722, growth: C-lim chemostat, doubling time 12 h
[8] = wild type E. coli NCM3722, growth: N-lim chemostat, doubling time 6 h
[9] = wild type E. coli NCM3722, growth: N-lim chemostat, doubling time 12 h
[10] = wild type E. coli NCM3722, growth: P-lim chemostat, doubling time 6 h
[11] = wild type E. coli NCM3722, growth: C-lim chemostat, doubling time 6 h
[12] = wild type E. coli NCM3722, growth: P-lim chemostat, doubling time 12 h

Sequence | total protein half-life in vivo [1] | total protein half-life in vivo [2] | total protein half-life in vivo [3] | total protein half-life in vivo [4] | total protein half-life in vivo [5] | total protein half-life in vivo [6] | total protein half-life in vivo [7] | total protein half-life in vivo [8] | total protein half-life in vivo [9] | total protein half-life in vivo [10] | total protein half-life in vivo [11] | total protein half-life in vivo [12]
MSTIVIFLAALLACSLLAGWLIKVRSRRRQLPWTNAFADAQTRKLTPEERSAVENYLESLTQVLQVPGPTGASAAPISLALNAESNNVMMLTHAITRYGISTDDPNKWRYYLDSVEVHLPPFWEQYINDENTVELIHTDSLPLVISLNGHTLQEYMQETRSYALQPVPSTQASIRGEESEQIELLNIRKETHEEYALSRPRGLREALLIVASFLMFFFCLITPDVFVPWLAGGALLLLGAGLWGLFAPPAKSSLREIHCLRGTPRRWGLFGENDQEQINNISLGIIDLVYPAHWQPYIAQDLGQQTDIDIYLDRHVVRQGRYLSLHDEVKNFPLQHWLRSTIIAAGSLLVLFMLLFWIPLDMPLKFTLSWMKGAQTIEATSVKQLADAGVRVGDTLRISGTGMCNIRTSGTWSAKTNSPFLPFDCSQIIWNDARSLPLPESELVNKATALTEAVNRQLHPKPEDESRVSASLRSAIQKSGMVLLDDFGDIVLKTADLCSAKDDCVRLKNALVNLGNSKDWDALVKRANAGKLDGVNVLLRPVSAESLDNLVATSTAPFITHETARAAQSLNSPAPGGFLIVSDEGSDFVDQPWPSASLYDYPPQEQWNAFQKLAQMLMHTPFNAEGIVTKIFTDANGTQHIGLHPIPDRSGLWRYLSTTLLLLTMLGSAIYNGVQAWRRYQRHRTRMMEIQAYYESCLNPQLITPSESLIE | 7.278 ± 0.055 h | 6.37 ± 0.32 h | 6.48 ± 0.55 h | 6.72 ± 0.7 h | 5.73 ± 0.16 h | 3.25 ± 0.17 h | 13.9 ± 1.9 h | 6.06 ± 0.22 h | 11.6 ± 1.6 h | 6.84 ± 0.8 h | – | –
MSTQEATLQQPLLQAIDLKKHYPVKKGMFAPERLVKALDGVSFNLERGKTLAVVGESGCGKSTLGRLLTMIEMPTGGELYYQGQDLLKHDPQAQKLRRQKIQIVFQNPYGSLNPRKKVGQILEEPLLINTSLSKEQRREKALSMMAKVGLKTEHYDRYPHMFSGGQRQRIAIARGLMLDPDVVIADEPVSALDVSVRAQVLNLMMDLQQELGLSYVFISHDLSVVEHIADEVMVMYLGRCVEKGTKDQIFNNPRHPYTQALLSATPRLNPDDRRERIKLSGELPSPLNPPPGCAFNARCRRRFGPCTQLQPQLKDYGGQLVACFAVDQDENPQR | 6.25 ± 0.25 h | 5.92 ± 0.29 h | 6.41 ± 0.085 h | 6.11 ± 0.94 h | 5.605 ± 0.031 h | 2.88 ± 0.33 h | 11.6 ± 0.25 h | 6.08 ± 0.62 h | 13.1 ± 0.71 h | 6.16 ± 0.27 h | 6.28 ± 0.43 h | 13.1 ± 0.21 h
MSTRTPSSSSSRLMLTIGLCFLVALMEGLDLQAAGIAAGGIAQAFALDKMQMGWIFSAGILGLLPGALVGGMLADRYGRKRILIGSVALFGLFSLATAIAWDFPSLVFARLMTGVGLGAALPNLIALTSEAAGPRFRGTAVSLMYCGVPIGAALAATLGFAGANLAWQTVFWVGGVVPLILVPLLMRWLPESAVFAGEKQSAPPLRALFAPETATATLLLWLCYFFTLLVVYMLINWLPLLLVEQGFQPSQAAGVMFALQMGAASGTLMLGALMDKLRPVTMSLLIYSGMLASLLALGTVSSFNGMLLAGFVAGLFATGGQSVLYALAPLFYSSQIRATGVGTAVAVGRLGAMSGPLLAGKMLALGTGTVGVMAASAPGILVAGLAVFILMSRRSRIQPCADA | – | – | – | – | – | – | 5.24 h | – | – | – | – | –
MSTTNHDHHIYVLMGVSGSGKSAVASEVAHQLHAAFLDGDFLHPRRNIEKMASGEPLNDDDRKPWLQALNDAAFAMQRTNKVSLIVCSALKKHYRDLLREGNPNLSFIYLKGDFDVIESRLKARKGHFFKTQMLVTQFETLQEPGADETDVLVVDIDQPLEGVVASTIEVIKKGK | 5.07 ± 0.67 h | 4.474 ± 0.042 h | 4.01 h | – | 4.121 ± 0.011 h | 3.02 ± 0.08 h | 8.67 h | 3.92 ± 0.44 h | 6.38 ± 0.14 h | 4.1 h | > 8 h | 9.14 ± 0.42 h
MSTTWFVGADWLAEHIDDPEIQIIDARMASPGQEDRNVAQEYLNGHIPGAVFFDIEALSDHTSPLPHMLPRPETFAVAMRELGVNQDKHLIVYDEGNLFSAPRAWWMLRTFGVEKVSILGGGLAGWQRDDLLLEEGAVELPEGEFNAAFNPEAVVKVTDVLLASHENTAQIIDARPAARFNAEVDEPRPGLRRGHIPGALNVPWTELVREGELKTTDELDAIFFGRGVSYDKPIIVSCGSGVTAAVVLLALATLDVPNVKLYDGAWSEWGARADLPVEPVK | 4.69 ± 0.49 h | 3.98 ± 0.5 h | 4.63 ± 0.66 h | 6.38 ± 2 h | 3.69 ± 0.23 h | 3.13 ± 0.094 h | 9.46 ± 0.71 h | 4.51 ± 0.59 h | 6.87 ± 0.19 h | 5.58 ± 0.12 h | 5.74 ± 0.92 h | 11 ± 0.56 h
MSVFSLKIDIADNKFFNGETSPLFSQSQAKLARQFHQKIAGYRPTPLCALDDLANLFGVKKILVKDESKRFGLNAFKMLGGAYAIAQLLCEKYHLDIETLSFEHLKNAIGEKMTFATTTDGNHGRGVAWAAQQLGQNAVIYMPKGSAQERVDAILNLGAECIVTDMNYDDTVRLTMQHAQQHGWEVVQDTAWEGYTKIPTWIMQGYATLADEAVEQMREMGVTPTHVLLQAGVGAMAGGVLGYLVDVYSPQNLHSIIVEPDKADCIYRSGVKGDIVNVGGDMATIMAGLACGEPNPLGWEILRNCATQFISCQDSVAALGMRVLGNPYGNDPRIISGESGAVGLGVLAAVHYHPQRQSLMEKLALNKDAVVLVISTEGDTDVKHYREVVWEGKHAVAP | – | – | – | – | – | – | – | – | – | – | 4.2 h | –
MSVIETATVPLAQQQADALLNVKDLRVTFSTPDGDVTAVNDLNFSLRAGETLGIVGESGSGKSQTAFALMGLLAANGRIGGSATFNGREILNLPEHELNKLRAEQISMIFQDPMTSLNPYMRVGEQLMEVLMLHKNMSKAEAFEESVRMLDAVKMPEARKRMKMYPHEFSGGMRQRVMIAMALLCRPKLLIADEPTTALDVTVQAQIMTLLNELKREFNTAIIMITHDLVVVAGICDKVLVMYAGRTMEYGNARDVFYQPVHPYSIGLLNAVPRLDAEGETMLTIPGNPPNLLRLPKGCPFQPRCPHAMEICSSAPPLEEFTPGRLRACFKPVEELL | 5.379 ± 0.026 h | 5.7109 ± 0.0028 h | 5.53 ± 0.098 h | 4.81 ± 0.18 h | 5.34 ± 0.22 h | 2.84 ± 0.31 h | 11.4 ± 1.9 h | 5.29 ± 0.21 h | 11.4 ± 1.2 h | 5.715 ± 0.02 h | 5.49 ± 0.35 h | 11.6 ± 0.23 h
